# Measured values from the RNAGym collection of RNA variant scans (doi:10.1073/pnas.2313332121).
# B1: TPR t1 (parent)
# chain: GACCAAUCUGCCCUCAGAGCUCGAGAACAUCUUCGGAUGCAGAGGAGGCAGGCUUCGGUGGCGCGAUAGCGCCAACGUCCUCAACCUCCAAUGCAUCCCACCACAUGAUGAUGCCUGAAGAGCCUUGGUUUUUUG
# Variants of: B1
# Assay: polymerase ribozyme fitness, log enrichment relative to wild type (log ratio); higher = more active; in vitro selection for triplet polymerase activity
# In short: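 Each subunit of a heterodimeric triplet polymerase ribozyme was mutagenized into a library by PCR, transcribed, and subjected to one round of in vitro selection, run in triplicate. Libraries were annealed with a biotinylated primer, the partner subunit and triplets, incubated frozen at −7 °C, and extended constructs were gel-excised, captured on streptavidin beads and recovered by RT-PCR. Input and output libraries were sequenced on Illumina, keeping genotypes with ≥10 input reads and ≥1 read per output. Fitness is log base 2 of genotype enrichment divided by wild-type enrichment, from inverse-variance-weighted replicate averages.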
row,Variant,polymerase ribozyme fitness (log ratio)
1,GACCAAUCUGCCCUCAGAGCUCGAGAACAUCUUCGGAUGCAGAGGAGGCAGGCUUAGGUGGCGCGAUAGCUCCAACGUCCUCAAUCUCCAAUGCAUCCCACAACAUGAUGAUGCCUGAAGAGCUUUGGUUUUUUG [C56A G71U C85U C102A C124U],-4.27
2,GACCAAUCUGCCCUCAGAGCUCGAGAACAUCUUCGGAUGCAGAGGAGGCAGGCUUAGGUGGCGCGAUAACGCCAACGUCCUCAGCCUCCAAUGCAUCCCACCACAUGAUGAUGCCUGAAGCGCCUUGGUUUUUUG [C56A G69A A84G A121C],-3.85
3,GACCAAUCUGCCCUCAGAGCUCGAGAACAUCUUCGGAUGCAGAGGAGGCAGGCUUAGGUGGCGCGAUAGCGCCAACGUCCUCAACCUCCAAUUCAUCCCACCACAUGAUGAAGCCGGAAGAGCCUUGGUUUUUUG [C56A G93U U112A U116G],-3.29
4,GACCAAUCUGCCCUCAGAGCUCGAGAACAUCUUCGGAUGCAGAGGAGGCAGGCUUAGGUGGCGCGAUAGCGCCAACGUCCUCAACCUCCAAUGCAUCCUACCACAUGAUGAUGCCUGAAGCGCCUUGGUUUUUUG [C56A C99U A121C],-2.01
5,GACCAAUCUGCCCUCAGAGCUCGAGAACAUCUUCGGAUGCAGAGGAGGCAGGCUUAGGUGGCGCGAUAUCGCCAACGUUCUCAACCUCCAAUGCAUCCCUCCCCAUGAUGAUGCCUGAAGAGCCUUGGUUUUUUG [C56A G69U C79U A100U A103C],-3.37
6,GACCAAUCUGCCCUCAGAGCUCGAGAACAUCUUCGGAUGCAGAGGAGGCAGGCUUAGGUGGCGCGAUAGCGCCAACGUCCUCAAGCUCCAACGCAUCCCACCACAUGAUGAUGCCUGAAGAGCCUUGGUUUUUUG [C56A C85G U92C],-4.74
7,GACCAAUCUGCCCUCAGAGCUCGAGAACAUCUUCGGAUGCAGAGGAGGCAGGCUUAGGUGGCUCGAUAGCGCCAACGUCCUCAACCUCCAAUGCAUCCCACCACAUGAUGAUGCCUGAAGAGCCUUGGUUUUUUG [C56A G63U],-4.97
8,GACCAAUCUGCCCUCAGAGCUCGAGAACAUCUUCGGAUGCAGAGGAGGCAGGCUUAGGUGGCACGAUAGCGCCAACGUCCUCAACCUCCAAUGCAUCCCACCACAUGAUGAUGCCUGAAGAGCCUUGGUUUUUUG [C56A G63A],-2.26
9,GACCAAUCUGCCCUCAGAGCUCGAGAACAUCUUCGGAUGCAGAGGAGGCAGGCUUAGGUGGCGCGAUAUCGCCAACGUCCUCAACCUGCAAUGCAUCCCACCACAUGAUGAUGCUUGAAGAGCCUUGGUUUUUUG [C56A G69U C88G C115U],-1.62
10,GACCAAUCUGCCCUCAGAGCUCGAGAACAUCUUCGGAUGCAGAGGAGGCAGGCUUAGGUGGCGCGAUAGCGCCAACCUCCUCAACCUCCAAUGCAUCCCACCACAUGAUGAUGCCUGAAGAGCCUUGGUUUUUUG [C56A G77C],-0.0761
11,GACCAAUCUGCCCUCAGAGCUCGAGAACAUCUUCGGAUGCAGAGGAGGCAGGCUUAGGUGGCGCGAUAGCGCCAACUUCCUCAACCUCCAAUGCAUCCCACCACAUGAUGAUGCCUGAAGAGCCUUGGUUUUUUG [C56A G77U],-0.278
12,GACCAAUCUGCCCUCAGAGCUCGAGAACAUCUUCGGAUGCAGAGGAGGCAGGCUUAGGUGGCGCGAUAGCGCCAACGUCCUCAACCUCCAAUGGAUCCCAACACAUGAUGAUGCCGGAAGAGCCUUGGUUUUUUG [C56A C94G C101A U116G],-4.75
13,GACCAAUCUGCCCUCAGAGCUCGAGAACAUCUUCGGAUGCAGAGGAGGCAGGCUUAGGUGGCGCGAUAUCGCCAACGACCUCAACCUCCCAUGCAUACCACCACAUGAUGAUGCCUGUAGAGCCUUGGUUUUUUG [C56A G69U U78A A90C C97A A118U],-4.65
14,GACCAAUCUGCCCUCAGAGCUCGAGAACAUCUUCGGAUGCAGAGGAGGCAGGCUUAGGUGGCGCGAUAGCGCCAACGUCCUCAACCUCCAAUGCAUCCCACCACAUGAUGAUGCCUGAAGAGUCUUGGUUUUUUG [C56A C123U],1.2
15,GACCAAUCUGCCCUCAGAGCUCGAGAACAUCUUCGGAUGCAGAGGAGGCAGGCUUAGGUGGCGCGAUAGCUCCAACGUCCUUAACCUCCAAUGCAUCCCACCACAUGAUGAUGCCUGAAGAGCCUUGGUUUUUUG [C56A G71U C82U],-1.78
16,GACCAAUCUGCCCUCAGAGCUCGAGAACAUCUUCGGAUGCAGAGGAGGCAGGCUUAGGUGACGCGAUAGCGCCAACGUCCUCAACCUCCAAUGCAUCCCACCACAUGAUGAUGCCUGAAGAGCCUUGGUUUUUUG [C56A G61A],-1.51
17,GACCAAUCUGCCCUCAGAGCUCGAGAACAUCUUCGGAUGCAGAGGAGGCAGGCUUAGGUGGCACGAUAGCGCCAACGCCCUCAACCUCCAAUGCAUCCCACCACAUGAUGAUGCCUGAAGAGCCUUGGUUUUUUG [C56A G63A U78C],-4.18
18,GACCAAUCUGCCCUCAGAGCUCGAGAACAUCUUCGGAUGCAGAGGAGGCAGGCUUAGGUGGCGCGAUAACGCCAACGUCCUCAACCUCCAAUGCAUCCCACCACAUGAUGAUGCCUUAAGAGCCUUGGUUUUUUG [C56A G69A G117U],-6.41
19,GACCAAUCUGCCCUCAGAGCUCGAGAACAUCUUCGGAUGCAGAGGAGGCAGGCUUAGGUGGCGCGAUAGCGCCAACGUCCUCAACCUCCAAUGCAUCCCACCACAUGAUGAUGACUGAAGAGCCUUGGUUUUUUA [C56A C114A G135A],-2.55
20,GACCAAUCUGCCCUCAGAGCUCGAGAACAUCUUCGGAUGCAGAGGAGGCAGGCUUAGGUGGCGCGAUAGCGCCAACGUCCUCAACCUCCAAUGCAUCCCAUCACACGAUGCUGCCUGAAGAGCCUUGGUUUUUUG [C56A C101U U106C A111C],-0.932
21,GACCAAUCUGCCCUCAGAGCUCGAGAACAUCUUCGGAUGCAGAGGAGGCAGGCUUAGGUGGCGCGAUAUCGCCAACGUCCUCAACCUCCAAUGCAUCCCACCACAUGAUGAUGCCUGAAGAGCCUUGGUUUUUUG [C56A G69U],-0.137

row,Variant,polymerase ribozyme fitness (log ratio)
1,GACCAAUCUGCCCUCAGAGCUCGAGAACAUCUUCGGAUGCAGAGGAGGCAGGCUUAGGUGGCGCGAUACCGCCAACGUCCUCAACCUCCAAUGCAUCCCACCACAUGAUGAUGCCUGAAGAGCCUUGGUUUUUUG [C56A G69C],-3.89
2,GACCAAUCUGCCCUCAGAGCUCGAGAACAUCUUCGGAUGCAGAGGAGGCAGGCUUAGGUGGCGCGAUAGCUCCAACGUCCGCAACCUCCAAUGCAUCCCACCACAUGAUGCUGCCUGAGGAGCCUUGGUUUUUUA [C56A G71U U81G A111C A119G G135A],-4.66
3,GACCAAUCUGCCCUCAGAGCUCGAGAACAUCUUCGGAUGCAGAGGAGGCAGGCUUAGGUUGCGCGAUAGCGCCAACGUCCUCAACCUCCAAUGCAUCCCACCACAUGAUGAUACCUGAAGAGCCUUGGUUUUUUG [C56A G60U G113A],-1.2
4,GACCAAUCUGCCCUCAGAGCUCGAGAACAUCUUCGGAUGCAGAGGAGGCAGGCUUAGGUGGCGCGAUAGCGCCAACGUCCUCAACCUCCAAUGAAUCCCACCACAUGAUGAUGCCUGAAGAGCCUUGGUUUUUUG [C56A C94A],-1.2
5,GACCAAUCUGCCCUCAGAGCUCGAGAACAUCUUCGGAUGCAGAGGAGGCAGGCUUAGGUGGCGCGAUAGCGCCAACGUCCUCAACAUCCAAUGCAUCCCACCACAUGAUGAUGCCUGAACAGCCUUGGUUUUUUG [C56A C86A G120C],0.246
6,GACCAAUCUGCCCUCAGAGCUCGAGAACAUCUUCGGAUGCAGAGGAGGCAGGCUUAGGUGGCGCGAUAGCGCCAACGUCCUCAACCUCCAAUGCAUCCCACUACAUGAUGAUGCCUGAAGAGCCUUGGUUUUUUG [C56A C102U],-1.54
7,GACCAAUCUGCCCUCAGAGCUCGAGAACAUCUUCGGAUGCAGAGGAGGCAGGCUUAGGUGGCGCGAUAGCGCCAACGUCCUCAACCUUCAAUGCAUCCCACCACAUGAUGAUGCCUGAAGAGCCUUGGUUUUUUG [C56A C88U],-0.627
8,GACCAAUCUGCCCUCAGAGCUCGAGAACAUCUUCGGAUGCAGAGGAGGCAGGCUUAGGUGGCGCGAUAGCGCCAACGUCCUCAACCUACAAUGCAUCCCACCACAUGAUGAUGCCUGAAGAGCCUUGGUUUUUUG [C56A C88A],-0.627
9,GACCAAUCUGCCCUCAGAGCUCGAGAACAUCUUCGGAUGCAGAGGAGGCAGGCUUAGGUGGCGCGAUAUCGCCAACGUCCUCAACCUCCAAUGCAUCCCACCACAUGGUGACGCCUAAAGAGCCUUGGUUUUUCG [C56A G69U A108G U112C G117A U134C],-3.02
10,GACCAAUCUGCCCUCAGAGCUCGAGAACAUCUUCGGAUGCAGAGGAGGCAGGCUUAGGUGGCGCGAUAGCGCCAACCUCCUCAACCUCCAAUGCAUCUCACCACAUGAUGAUGCCUGAAGAGCCUUGAUUUUUUG [C56A G77C C98U G128A],-3.89
11,GACCAAUCUGCCCUCAGAGCUCGAGAACAUCUUCGGAUGCAGAGGAGGCAGGCUUAGGUGGCGCGAUAGCGCCAACCUCCUCAACCUCCAAUGCAUCCCACCACAUGAUGAUGCCUGAAGAGCAUUGGUUUUUUG [C56A G77C C124A],1.47
12,GACCAAUCUGCCCUCAGAGCUCGAGAACAUCUUCGGAUGCAGAGGAGGCAGGCUUAGGUGGCGCGAUAACGCCAACGUCCUCAACCUCCAAUGCAUCCCACCACAUGAUGAUGCCUGAAGAGCCUUGGUUUUCUG [C56A G69A U133C],-2.92
13,GACCAAUCUGCCCUCAGAGCUCGAGAACAUCUUCGGAUGCAGAGGAGGCAGGCUUAGGUGGCACGAUAGCGCCAACGUCCUCAACCUCUAAUGCAUCCCACCACAUGAUGAUGCCUGAAGAGCCUUGGUUUUUUG [C56A G63A C89U],-3.22
14,GACCAAUCUGCCCUCAGAGCUCGAGAACAUCUUCGGAUGCAGAGGAGGCAGGCUUAGGUGGCGCGAUAGCGCCAACGUCCUCAACCUCCAAUGCAUCCCACCACAUGAUAAUGCCUGAAGAGCCUUGGUUUUUUG [C56A G110A],-0.447
15,GACCAAUCUGCCCUCAGAGCUCGAGAACAUCUUCGGAUGCAGAGGAGGCAGGCUUAGGUGGCGCGAUAGCGCCAACGUCCUCAACCUCCAAUGCAUCCCACCACAUGAUGAUGACUGAAGAGCCUUGGUUUUUUG [C56A C114A],-1.74
16,GACCAAUCUGCCCUCAGAGCUCGAGAACAUCUUCGGAUGCAGAGGAGGCAGGCUUAGGUGGCGCGAUAGCGCCAACGUCCUCAACCUCCAAUGCAUCCCACCACAUGAUGAUGUCUGAAGAGCCUUGGUUUUUUG [C56A C114U],-2.03
17,GACCAAUCUGCCCUCAGAGCUCGAGAACAUCUUCGGAUGCAGAGGAGGCAGGCUUAGGUGGCGCGAUAGCGCCAACGUCCUCAACCUCCAAUGCAUCCCACCAUAUGAUGAUGCCUAAAGAGCCUUGGUUUUUUG [C56A C104U G117A],-1.3
18,GACCAAUCUGCCCUCAGAGCUCGAGAACAUCUUCGGAUGCAGAGGAGGCAGGCUUAGGUGGCGCGAUAGCGCCAACGUCCUCAACCUCCAAUGCAUGCCACCACAUGAUGAUGCCUGAAGAGCCUUGGUUUUUUG [C56A C97G],-4.2
19,GACCAAUCUGCCCUCAGAGCUCGAGAACAUCUUCGGAUGCAGAGGAGGCAGGCUUAGGUGGCGCGAUAGCGCCAACGUCCUCAACCUCCAAUGCAUCCCACCACAUGAUGAUGCCUGAAGAGCAUUGGUUUUUUG [C56A C124A],1.04
20,GACCAAUCUGCCCUCAGAGCUCGAGAACAUCUUCGGAUGCAGAGGAGGCAGGCUUAGGUGGCGCGAUAGCGCCAACGUCCUCAACCUCCAAUGCAUCACACCACAUGAUGAUGCCUGAAGAGCCUUGGUUUUUUG [C56A C98A],-5.59
21,GACCAAUCUGCCCUCAGAGCUCGAGAACAUCUUCGGAUGCAGAGGAGGCAGGCUUAGGUGGCGCGAUAGCGCCAACGUCCUCAACCUCCAAUGCAUCUCACCACAUGAUGAUGCCUGAAGAGCCUUGGUUUUUUG [C56A C98U],-1.91
